{"source": "paper PMC9098913", "about": "“In vitro reconstitution of Escherichia coli divisome activation” (Nature Communications, 2022)", "key": {"[1]": {"tested_on": "FtsA self-interaction", "assay": "FRET (acceptor photobleaching) self-interaction of FtsA on supported lipid bilayers", "assay_type": "binding, E. coli", "excerpt": "To directly measure FtsA self-interaction in our fluorescence microscopy experiments, we established a FRET (Förster resonance energy transfer)-based assay using FtsA labelled with either Cy5 (acceptor) or Cy3 (donor). […] We then decided to use this approach to measure the degree of FtsA self-interaction on supported lipid membranes by quantifying the increase in donor fluorescence after photobleaching the acceptor fluorophore[30]–[32] (Fig. 3c–e and Fig. S3d). […] As a negative control, we also attached the Hexahistidine-SUMO-tag (His-SUMO) labelled with Cy5 and Cy3 to membranes with an increasing density of Tris-NTA lipids.\nEquimolar concentrations of Cy3- and Cy5-labelled FtsA, supplemented with 20% unlabelled FtsA were used to study FRET and FRAP. Five pre-bleach frames were acquired, followed by acceptor photobleaching of a rectangular ROI with 40% 641 nm laser power and a dwell size of 1 µs/pixel, 75% overlapping lines. The recovery of the signal or the increase in donor intensity were measured with either two frames or one frame per second.\n(§1) Bleaching the acceptor dye leads to an increase in the donor intensity, which can be used to quantify the Foerster Resonance energy transfer (FRET)[48]. FRET efficiency was quantified with E%=Ipost/Ipost+Ipre⋅100 , where Ipost is the intensity of the […] and Ipre is the […]. […] To extract the contribution of both processes, we adjusted a routine recently published by Gerganova et al.[33]. In short, the code provides the contribution of both modes of recovery by analysing the shape of the fluorescence recovery profile. […] Contribution of diffusion leads to a change of the slope of the outer borders of the bleached region (S4h right). Thus, by measuring the change of the slope of the border recovery, diffusion and simple on/off binding can be distinguished. We developed “FRAPdiff”, a graphical user interface, which uses the original fit routine by David Rutkowski. It can be used directly on.tiff movies with annotated bleach regions as ImageJ ROIs. In addition, we added optional bleach correction, user selectable projection axis (x or y), and optional mirroring of the recovery profiles, if bleaching was not symmetric. The original fit routine for estimating the recovery and diffusion dynamics can be found at https://github.com/davidmrutkowski/1DReflectingDiffusion. FRAPdiff is available at 10.5281/zenodo.6400639[49] under the GPLv3 open-source license."}, "[2]": {"tested_on": "FtsA self-interaction", "assay": "FRET self-interaction of His-tagged FtsAs (and His-SUMO control) on Tris-NTA membranes", "assay_type": "binding, E. coli", "conditions": "without FtsZ", "description": "(§2) To study colocalization of His-tagged variants of FtsA, 0.5–1 µM of Cy5 labelled His-tagged FtsAs were added to the chamber, incubated for 20 min and washed 6x with reaction buffer. […] To control the density of membrane-bound FtsA, SUVs without and with Tris-NTA lipids were mixed to obtain the respective Tris-NTA concentrations. To perform FRET/FRAP experiments, equimolar concentrations of Cy3 and Cy5 labelled His-tagged FtsAs (total 0.5–1 µM) or His-SUMO-Cys were added to a chamber and treated as above. […] FRAP experiments were performed as described before.\nas §1"}, "[3]": {"assay": "Diffusion coefficient of His-tagged FtsAs and His-SUMO on Tris-NTA membranes (FRAP)", "conditions": "without FtsZ", "description": "as §2, §1"}, "[4]": {"target": "the molecule itself", "assay": "FRET or BRET; acceptor photobleaching; equimolar Cy3- and Cy5-labelled His-tagged protein (total 0.5-1 µM, washed) attached to bilayers with varied Tris-NTA lipid density"}}}
{"molecule": "Nc1ncnc2c1ncn2[C@@H]1O[C@H](CO[P@](=O)(O)O[P@](=O)(O)O[P@@](=O)(O)S)[C@@H](O)[C@H]1O", "note": "[ATPγS, reference compound]", "values": [{"measurement": "effect of replacing ATP with ATPγS on membrane-binding, self-interaction or membrane-binding dynamics", "setting": "[1]", "value": "no significant effect"}]}
{"molecule": "His6-SUMO (protein, UniProt Q12306 2-98, looked up, His6 tag) Ubiquitin-like protein SMT3: SDSEVNQEAKPEVKPEVKPETHINLKVSDGSSEIFFKIKKTTPLRRLMEAFAKRQGKEMDSLRFLYDGIRIQADQTPEDLDMEDNDIIEAHREQIGG", "values": [{"measurement": "FRET efficiency", "setting": "[2]; 0.1% Tris NTA, Exp1", "value": 1.02, "unit": "%"}, {"measurement": "FRET efficiency", "setting": "[2]; 0.1% Tris NTA, Exp2", "value": 1.41, "unit": "%"}, {"measurement": "FRET efficiency", "setting": "[2]; 0.1% Tris NTA, mean, n = 2", "value": 1.21, "unit": "%"}, {"measurement": "FRET efficiency", "setting": "[2]; 0.4% Tris NTA, Exp1", "value": 1.31, "unit": "%"}, {"measurement": "FRET efficiency", "setting": "[2]; 0.4% Tris NTA, Exp2", "value": 1.55, "unit": "%"}, {"measurement": "FRET efficiency", "setting": "[2]; 0.4% Tris NTA, Mean, n = 2", "value": 1.43, "unit": "%"}, {"measurement": "FRET efficiency", "setting": "[2]; 0.6% Tris NTA, Exp1", "value": 0.86, "unit": "%"}, {"measurement": "FRET efficiency", "setting": "[2]; 0.6% Tris NTA, Exp2", "value": 0.95, "unit": "%"}, {"measurement": "FRET efficiency", "setting": "[2]; 0.6% Tris NTA, Mean, n = 3 (His6-SUMO n = 2)", "value": 0.91, "unit": "%"}, {"measurement": "FRET efficiency", "setting": "[2]; 0.8% Tris NTA, Exp1", "value": 0.27, "unit": "%"}, {"measurement": "FRET efficiency", "setting": "[2]; 0.8% Tris NTA, Exp2", "value": 0.30, "unit": "%"}, {"measurement": "FRET efficiency", "setting": "[2]; 0.8% Tris NTA, Mean, n = 3 (His6-SUMO n = 2)", "value": 0.29, "unit": "%"}, {"measurement": "FRET efficiency", "setting": "[2]; 1% Tris NTA, Exp1", "value": 0.57, "unit": "%"}, {"measurement": "FRET efficiency", "setting": "[2]; 1% Tris NTA, Exp2", "value": 0.59, "unit": "%"}, {"measurement": "FRET efficiency", "setting": "[2]; 1% Tris NTA, Exp3", "value": 0.56, "unit": "%"}, {"measurement": "FRET efficiency", "setting": "[2]; 1% Tris NTA, Mean, n = 3 (R286W-His6 n = 4)", "value": 0.57, "unit": "%"}, {"measurement": "FRET efficiency", "setting": "[2]; 2% Tris NTA, Exp1", "value": 0.56, "unit": "%"}, {"measurement": "FRET efficiency", "setting": "[2]; 2% Tris NTA, Exp2", "value": 0.41, "unit": "%"}, {"measurement": "FRET efficiency", "setting": "[2]; 2% Tris NTA, Mean, n = 2", "value": 0.49, "unit": "%"}, {"measurement": "FRET efficiency", "setting": "[2]; Tris 0.40 %, mean", "value": 1.43, "unit": "%"}, {"measurement": "FRET efficiency", "setting": "[2]; Tris 0.60 %, mean", "value": 0.91, "unit": "%"}, {"measurement": "FRET efficiency", "setting": "[2]; Tris 0.80 %, mean", "value": 0.28, "unit": "%"}, {"measurement": "FRET efficiency", "setting": "[2]; Tris 1.00 %, mean", "value": 0.57, "unit": "%"}, {"measurement": "FRET efficiency", "setting": "[2]; Tris 2.00 %, mean", "value": 0.49, "unit": "%"}, {"measurement": "FRET efficiency", "setting": "[2]; […] Tris NTA, Exp1", "value": 1.47, "unit": "%"}, {"measurement": "FRET efficiency", "setting": "[2]; […] Tris NTA, Exp2", "value": 1.00, "unit": "%"}, {"measurement": "FRET efficiency", "setting": "[2]; […] Tris NTA, mean, n = 2", "value": 1.23, "unit": "%"}, {"measurement": "Diffusion Coefficient", "setting": "[3]; 0.1% Tris NTA, replicate Exp1", "value": 0.47, "unit": "µm2/s"}, {"measurement": "Diffusion Coefficient", "setting": "[3]; 0.1% Tris NTA, replicate Exp2", "value": 0.69, "unit": "µm2/s"}, {"measurement": "Diffusion Coefficient", "setting": "[3]; 0.4% Tris NTA, replicate Exp1", "value": 0.55, "unit": "µm2/s"}, {"measurement": "Diffusion Coefficient", "setting": "[3]; 0.4% Tris NTA, replicate Exp2", "value": 0.53, "unit": "µm2/s"}, {"measurement": "Diffusion Coefficient", "setting": "[3]; 0.4% Tris NTA, replicate Exp3", "value": 0.48, "unit": "µm2/s"}, {"measurement": "Diffusion Coefficient", "setting": "[3]; 0.6% Tris NTA, replicate Exp1", "value": 0.58, "unit": "µm2/s"}, {"measurement": "Diffusion Coefficient", "setting": "[3]; 0.6% Tris NTA, replicate Exp2", "value": 0.54, "unit": "µm2/s"}, {"measurement": "Diffusion Coefficient", "setting": "[3]; 0.6% Tris NTA, replicate Exp3", "value": 0.58, "unit": "µm2/s"}, {"measurement": "Diffusion Coefficient", "setting": "[3]; 0.6% Tris NTA, replicate Exp4", "value": 0.63, "unit": "µm2/s"}, {"measurement": "Diffusion Coefficient", "setting": "[3]; 0.8% Tris NTA, mean", "value": 0.52, "unit": "µm2/s"}, {"measurement": "Diffusion Coefficient", "setting": "[3]; 0.8% Tris NTA, replicate Exp1", "value": 0.56, "unit": "µm2/s"}, {"measurement": "Diffusion Coefficient", "setting": "[3]; 0.8% Tris NTA, replicate Exp2", "value": 0.53, "unit": "µm2/s"}, {"measurement": "Diffusion Coefficient", "setting": "[3]; 0.8% Tris NTA, replicate Exp3", "value": 0.48, "unit": "µm2/s"}, {"measurement": "Diffusion Coefficient", "setting": "[3]; 0.8% Tris NTA, replicate Exp4", "value": 0.52, "unit": "µm2/s"}, {"measurement": "Diffusion Coefficient", "setting": "[3]; 1% Tris NTA, mean", "value": 0.57, "unit": "µm2/s"}, {"measurement": "Diffusion Coefficient", "setting": "[3]; 1% Tris NTA, replicate Exp1", "value": 0.45, "unit": "µm2/s"}, {"measurement": "Diffusion Coefficient", "setting": "[3]; 1% Tris NTA, replicate Exp2", "value": 0.57, "unit": "µm2/s"}, {"measurement": "Diffusion Coefficient", "setting": "[3]; 1% Tris NTA, replicate Exp3", "value": 0.66, "unit": "µm2/s"}, {"measurement": "Diffusion Coefficient", "setting": "[3]; 1% Tris NTA, replicate Exp4", "value": 0.60, "unit": "µm2/s"}, {"measurement": "Diffusion Coefficient", "setting": "[3]; 1% Tris NTA, replicate Exp5", "value": 0.57, "unit": "µm2/s"}, {"measurement": "Diffusion Coefficient", "setting": "[3]; 1% Tris NTA, replicate Exp6", "value": 0.68, "unit": "µm2/s"}, {"measurement": "Diffusion Coefficient", "setting": "[3]; 1% Tris NTA, replicate Exp7", "value": 0.62, "unit": "µm2/s"}, {"measurement": "Diffusion Coefficient", "setting": "[3]; 1% Tris NTA, replicate Exp8", "value": 0.43, "unit": "µm2/s"}, {"measurement": "Diffusion Coefficient", "setting": "[3]; Tris 0.10 %", "value": 0.58, "unit": "µm2/s"}, {"measurement": "Diffusion Coefficient", "setting": "[3]; Tris 0.40 %", "value": 0.52, "unit": "µm2/s"}, {"measurement": "Diffusion Coefficient", "setting": "[3]; Tris 0.60 %", "value": 0.58, "unit": "µm2/s"}, {"measurement": "Diffusion Coefficient", "setting": "[3]; Tris 0.80 %", "value": 0.52, "unit": "µm2/s"}, {"measurement": "Diffusion Coefficient", "setting": "[3]; Tris 1.00 %", "value": 0.57, "unit": "µm2/s"}, {"measurement": "Diffusion Coefficient", "setting": "[3]; Tris 2.00 %", "value": 0.58, "unit": "µm2/s"}, {"measurement": "Diffusion Coefficient", "setting": "[3]; Tris […]", "value": 0.56, "unit": "µm2/s"}, {"measurement": "Diffusion Coefficient", "setting": "[3]; […] Tris NTA, mean (n: WT 2, R286W 3, SUMO 3)", "value": 0.56, "unit": "µm2/s"}, {"measurement": "Diffusion Coefficient", "setting": "[3]; […] Tris NTA, replicate Exp1", "value": 0.47, "unit": "µm2/s"}, {"measurement": "Diffusion Coefficient", "setting": "[3]; […] Tris NTA, replicate Exp2", "value": 0.67, "unit": "µm2/s"}, {"measurement": "Diffusion Coefficient", "setting": "[3]; […] Tris NTA, replicate Exp3", "value": 0.53, "unit": "µm2/s"}]}
{"molecule": "FtsA WT (1-405)-6xHis (domain or fragment, E. coli, UniProt P0ABH0 1-405, looked up, Cy3 or Cy5 at the N-terminus in the labelled form (sortagging as for native FtsA), FtsA, E. coli, residues 1-405; plasmid pNB4; Attached to membranes through Tris-NTA lipids by its His tag; also called FtsA-His6; FtsA WT-His6; source: E. coli BL21, purified (as native FtsA); not shown: TwinStrep-SUMO, N-terminal, cleaved; 5xGlycine tag, N-terminal, kept; His6, C-terminal, kept) MIKATDRKLVVGLEIGTAKVAALVGEVLPDGMVNIIGVGSCPSRGMDKGGVNDLESVVKCVQRAIDQAELMADCQISSVYLALSGKHISCQNEIGMVPISEEEVTQEDVENVVHTAKSVRVRDEHRVLHVIPQEYAIDYQEGIKNPVGLSGVRMQAKVHLITCHNDMAKNIVKAVERCGLKVDQLIFAGLASSYSVLTEDERELGVCVVDIGGGTMDIAVYTGGALRHTKVIPYAGNVVTSDIAYAFGTPPSDAEAIKVRHGCALGSIVGKDESVEVPSVGGRPPRSLQRQTLAEVIEPRYTELLNLVNEEILQLQEKLRQQGVKHHLAAGIVLTGGAAQIEGLAACAQRVFHTQVRIGAPLNITGLTDYAQEPYYSTAVGLLHYGKESHLNGEAEVEKRVTASV", "values": [{"measurement": "binding result", "setting": "[4]", "value": "binds"}]}
